Results from patent publication US20200140566A1 (CLEVELAND CLINIC FOUNDATION, published 2020).
Several values for one entry are separate records, joined by “and”; a condition that tells them apart may be missing. Equal values may be shown once.

T1: CD6 on Jurkat cells (human, UniProt P30203 18-668)
T1 construct: whole, on cells; the target is inferred from the antibodies' specificity
T1 sequence (looked up): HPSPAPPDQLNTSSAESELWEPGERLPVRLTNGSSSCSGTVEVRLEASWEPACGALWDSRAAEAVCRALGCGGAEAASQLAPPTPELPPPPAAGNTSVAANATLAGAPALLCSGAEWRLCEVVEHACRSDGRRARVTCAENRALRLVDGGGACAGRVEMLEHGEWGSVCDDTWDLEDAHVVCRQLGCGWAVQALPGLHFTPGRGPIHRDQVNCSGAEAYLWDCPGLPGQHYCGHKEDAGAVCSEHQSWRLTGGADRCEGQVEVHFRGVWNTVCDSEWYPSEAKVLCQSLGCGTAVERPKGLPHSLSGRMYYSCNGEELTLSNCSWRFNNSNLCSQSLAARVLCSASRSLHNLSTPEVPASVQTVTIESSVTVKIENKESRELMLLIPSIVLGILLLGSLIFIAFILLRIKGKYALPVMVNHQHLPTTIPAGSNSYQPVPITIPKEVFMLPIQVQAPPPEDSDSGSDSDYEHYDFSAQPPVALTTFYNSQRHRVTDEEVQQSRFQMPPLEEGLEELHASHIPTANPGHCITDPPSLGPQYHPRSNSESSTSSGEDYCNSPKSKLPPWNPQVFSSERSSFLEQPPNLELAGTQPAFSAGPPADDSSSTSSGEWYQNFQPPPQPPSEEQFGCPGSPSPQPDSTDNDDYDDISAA

T2: rhCD6-Fc (human, UniProt P30203 25-398, limits assumed)
T2 construct: also called rhCD6-Fc chimera; antigen rhCD6-Fc; not shown: Fc part
T2 sequence (looked up): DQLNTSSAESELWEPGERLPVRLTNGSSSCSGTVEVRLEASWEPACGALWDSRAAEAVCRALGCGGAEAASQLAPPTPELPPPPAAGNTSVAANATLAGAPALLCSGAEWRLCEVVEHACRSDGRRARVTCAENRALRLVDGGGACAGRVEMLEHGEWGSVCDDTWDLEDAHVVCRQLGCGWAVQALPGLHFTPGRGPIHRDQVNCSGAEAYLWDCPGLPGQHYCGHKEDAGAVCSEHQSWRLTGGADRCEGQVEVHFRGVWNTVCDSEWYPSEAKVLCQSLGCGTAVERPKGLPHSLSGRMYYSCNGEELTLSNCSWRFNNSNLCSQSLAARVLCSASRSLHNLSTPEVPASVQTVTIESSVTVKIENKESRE


How the values were obtained:
CD6 on Jurkat cells [1] = target: T1, CD6 on Jurkat cells; experiment: flow cytometry on Jurkat cells, antibody at 16 pM
Method: (§1) Flow cytometric analysis was performed using the purified antibodies. Jurkat cells were grown to 70-80% confluence and harvested by centrifuge. About 4×10⁵ cells per well were washed with PBS twice. 200 μl of the culture supernatant was added to the cells and incubated at room temperature for 1 hour. After washing with PBS, antibody was added to the cells for the detection of bound humanized IgG. After 30 minutes incubation, the cells were washed twice with PBS and resuspended in PBS. Cells were analyzed for IgG binding by using FACS Calibur (BD Bioscience, San Jose, Calif.) and Flowjo software. The IC₅₀ was analyzed by GraphPad Prism.
(§2) The FACS binding assay was also performed for validation of the Jurkat cell/humanized antibody interaction. Three humanized antibodies show almost equal Jurkat cell binding activity as parent antibody.

CD6 on Jurkat cells [2] = target: T1, CD6 on Jurkat cells; experiment: flow cytometry on Jurkat cells, antibody at 80 pM
Method: as §1, §2

CD6 on Jurkat cells [3] = target: T1, CD6 on Jurkat cells; experiment: flow cytometry on Jurkat cells, antibody at 3.2 pM
Method: as §1, §2

CD6 on Jurkat cells [4] = target: T1, CD6 on Jurkat cells; experiment: flow cytometry on Jurkat cells, antibody at 400 pM
Method: as §1, §2

CD6 on Jurkat cells [5] = target: T1, CD6 on Jurkat cells; experiment: flow cytometry on Jurkat cells, antibody at 2000 pM
Method: as §1, §2

CD6 on Jurkat cells [6] = target: T1, CD6 on Jurkat cells; experiment: flow cytometry on Jurkat cells, antibody at 10000 pM
Method: as §1, §2

CD6 on Jurkat cells [7] = target: T1, CD6 on Jurkat cells; experiment: flow cytometry on Jurkat cells, antibody at 0 pM (background)
Method: as §1, §2

rhCD6-Fc [8] = target: T2, rhCD6-Fc; experiment: SPR (BIAcore T200, 25 C), rhCD6-Fc immobilised on CM5, IgG injected, apparent KD = kd/ka
Method: (§3) IgG antibodies were injected through flow cells at a flow rate of 30 μl/min with the concentration ranging from 0.11-27 nM (three-fold serial dilution). Association time was 700 s followed by 3600 s dissociation. At the end of each cycle, sensor surface was regenerated with 10 mM Glycine-HCl, pH 2.0 (100 μl/min, 12 s for 3 times). Responses of reference flow cell and buffer-only injection were double-subtracted from rhCD6-Fcflow cell during each antigen injection cycle. The data of dissociation (kd) and association (ka) rate constants were obtained by fitting binding data to 1:1 binding model using Biacore T200 evaluation software. The apparent equilibrium dissociation constants (KD) were calculated from the ratio of kd over ka.
(§4) Affinity analysis of antigen-antibody interaction. Binding data of each antibody was processed and fitted to 1:1 binding model using Biacore T200 evaluation software. All experiment data could be perfectly fitted to the model (FIG. 14).

CD6 on Jurkat cells [9] = target: T1, CD6 on Jurkat cells; experiment: flow cytometry titration of direct binding on Jurkat cells (the filing calls the midpoint IC50), GraphPad Prism
Method: as §1, §2

rhCD6-Fc [10] = target: T2, rhCD6-Fc; experiment: SPR (BIAcore T200, 25 C), rhCD6-Fc immobilised on CM5, IgG injected 0.11-27 nM, 1:1 fit; column head misprinted 'Kd (1/Ms)'
Method: as §3, §4

rhCD6-Fc [11] = target: T2, rhCD6-Fc; experiment: SPR (BIAcore T200), Fab-SASA from culture medium captured on immobilised BSA, rhCD6-Fc injected, 1:1 fit of off-rate
Method: BSA was immobilized onto the sensor chip using amine coupling method. The selected Fab-SASA clones secreted to the culture medium were injected and captured by BSA via SASA (capture phase). After equilibration, antigen rhCD6-Fc was injected for 240 seconds (association phase) followed by the injection of running buffer for 720 seconds (dissociation phase). The surface was regenerated before the injection of another three Fab-SASA clones. The process was repeated until all antibodies were analyzed. Responses of reference flow cell were subtracted from those of Fab-SASA flow cells during each cycle. The binding curves of Fab-SASA clones were aligned at the start of association and normalized at 20 seconds after the stop of antigen injection using the BIAcore T200 evaluation software in order to display a more visualized comparison of antibodies. The off-rates of Fab-SASA clones were obtained from fitting the experimental data locally to 1:1 binding model. The antibodies were ranked by their dissociation rate constants Single cycle kinetics measurement was performed to verify the affinity ranking result. The selected Fab-SASA clones secreted to the culture medium were injected and captured by BSA via SASA (capture phase). After equilibration, a series of concentrations of antigen rhCD6-Fc (1, 3, 9, 27 and 81 nM) were injected for 500 seconds (association phase) followed by the injection of running buffer for 3000 seconds (dissociation phase). The surface was regenerated before another injection of Fab-SASA clones. Responses of reference flow cell and buffer-only injection were double-subtracted from those of Fab-SASA flow cells during each antigen injection cycle. The binding data were fitted to 1:1 binding model using the BIAcore T200 evaluation software.
Five back-mutation clones were constructed based on sequence of Fab2 and homology modeling. Each of DNA sequence encoding the five Fab fragments was inserted into pFASEBA vector for screening of the lead antibodies. The five clones along with Fab2 were screened against rhCD6-Fc for binding test and subsequent off-rate analysis by the BIAcore T200. Three clones were selected for IgG production and characterization due to the low dissociation rate using the BIAcore T200 evaluation software (Table 3).

MFI (CD6 on Jurkat cells [1])	MFI (CD6 on Jurkat cells [2])	MFI (CD6 on Jurkat cells [3])	MFI (CD6 on Jurkat cells [4])	MFI (CD6 on Jurkat cells [5])	MFI (CD6 on Jurkat cells [6])	MFI (CD6 on Jurkat cells [7])	Kd (rhCD6-Fc [8]) [nM]	EC50 (CD6 on Jurkat cells [9]) [nM]	koff (rhCD6-Fc [10]) [s⁻¹]	kon (rhCD6-Fc [10]) [M⁻¹ s⁻¹]	koff (rhCD6-Fc [11])	Binder
6.8	10.9	6.18	31	45	42.7	5.45	0.042	0.275	1.3e-05	320000		Humanized IgG2 (from Fab2) (antibody, V domains shown, VH2-hIgG1CH and VL-hIgKCL (human IgG1 / kappa)) VH: QVQLQESGPGLVKPSETLSLTCTVSGFSLSRYSVHWVRQPPGKGLEWLGLIWGGGFTDYNSALKSRLTISKDNSKNQVSLKLSSVTAADTAVYYCAREGVAYWGQGTLVTVSS VL: DVVMTQSPLSLPVTLGQPASISCKSSQSLLNSDGRTYLNWFQQRPGQSPRRLIYLVSKLDSGVPDRFSGSGSGTDFTLKISRVEAEDVGVYYCWQGTHFPFTFGPGTKVDIKR
											0.00089 s⁻¹	Fab7 (Fab, V domains shown, Tested as Fab-SASA secreted into culture medium; also called back-mutation 7) VH: QVQLQESGPGLVKPSETLSLTCTVSGGSISRYSVHWVRQPPGKGLEWLGLIWGGGFTDYNSALKSRLTISVDTSKNQFSLKLSSVTAADTAVYYCAREGVAYWGQGTLVTVSS VL: DVVMTQSPLSLPVTLGQPASISCKSSQSLLNSDGRTYLNWFQQRPGQSPRRLIYLVSKLDSGVPDRFSGSGSGTDFTLKISRVEAEDVGVYYCWQGTHFPFTFGPGTKVDIK
											0.00053 s⁻¹ and 0.00056 s⁻¹	Fab5 (Fab, V domains shown, Tested as Fab-SASA secreted into culture medium; also called Fab5 R; back-mutation 5) VH: QVQLQESGPGLVKPSETLSLTCTVSGGSLSRYSVHWVRQPPGKGLEWLGLIWGGGFTDYNSALKSRLTISVDTSKNQFSLKLSSVTAADTAVYYCAREGVAYWGQGTLVTVSS VL: DVVMTQSPLSLPVTLGQPASISCKSSQSLLNSDGRTYLNWFQQRPGQSPRRLIYLVSKLDSGVPDRFSGSGSGTDFTLKISRVEAEDVGVYYCWQGTHFPFTFGPGTKVDIK

The remaining lines, values behind:

Binder	MFI (CD6 on Jurkat cells [1])	MFI (CD6 on Jurkat cells [2])	MFI (CD6 on Jurkat cells [3])	MFI (CD6 on Jurkat cells [4])	MFI (CD6 on Jurkat cells [5])	MFI (CD6 on Jurkat cells [6])	MFI (CD6 on Jurkat cells [7])	Kd (rhCD6-Fc [8]) [nM]	EC50 (CD6 on Jurkat cells [9]) [nM]	koff (rhCD6-Fc [10]) [s⁻¹]	kon (rhCD6-Fc [10]) [M⁻¹ s⁻¹]	koff (rhCD6-Fc [11])
Humanized IgG6 (from Fab6) (antibody, V domains shown, Human IgG1 / kappa) VH: QVQLQESGPGLVKPSETLSLTCTVSGFSLSRYSVHWIRQPPGKGLEWIGLIWGGGFTDYNSALKSRVTISKDNSKNQVSLKLSSVTAADTAVYYCAREGVAYWGQGTLVTVSS VL: DVVMTQSPLSLPVTLGQPASISCKSSQSLLNSDGRTYLNWFQQRPGQSPRRLIYLVSKLDSGVPDRFSGSGSGTDFTLKISRVEAEDVGVYYCWQGTHFPFTFGPGTKVDIKR	7.9	14.8	6.68	35.3	44.1	45.2	5.45	0.032	0.197	2.1e-05	650000	
Fab2 (Fab, V domains shown, Tested as Fab-SASA secreted into culture medium (pFASEBA vector); also called back-mutation 2; Fab2 clone from CDR grafting) VH: QVQLQESGPGLVKPSETLSLTCTVSGFSLSRYSVHWVRQPPGKGLEWLGLIWGGGFTDYNSALKSRLTISKDNSKNQVSLKLSSVTAADTAVYYCAREGVAYWGQGTLVTVSS VL: DVVMTQSPLSLPVTLGQPASISCKSSQSLLNSDGRTYLNWFQQRPGQSPRRLIYLVSKLDSGVPDRFSGSGSGTDFTLKISRVEAEDVGVYYCWQGTHFPFTFGPGTKVDIK												2.1e-05 s⁻¹
Fab4 (Fab, V domains shown, Tested as Fab-SASA secreted into culture medium; also called back-mutation 4) VH: QVQLQESGPGLVKPSETLSLTCTVSGFSISRYSVHWIRQPPGKGLEWIGLIWGGGFTDYNSALKSRVTISKDNSKNQVSLKLSSVTAADTAVYYCAREGVAYWGQGTLVTVSS VL: DVVMTQSPLSLPVTLGQPASISCKSSQSLLNSDGRTYLNWFQQRPGQSPRRLIYLVSKLDSGVPDRFSGSGSGTDFTLKISRVEAEDVGVYYCWQGTHFPFTFGPGTKVDIK												1.9e-05 s⁻¹
Fab6 (Fab, V domains shown, Tested as Fab-SASA secreted into culture medium; also called back-mutation 6) VH: QVQLQESGPGLVKPSETLSLTCTVSGFSLSRYSVHWIRQPPGKGLEWIGLIWGGGFTDYNSALKSRVTISKDNSKNQVSLKLSSVTAADTAVYYCAREGVAYWGQGTLVTVSS VL: DVVMTQSPLSLPVTLGQPASISCKSSQSLLNSDGRTYLNWFQQRPGQSPRRLIYLVSKLDSGVPDRFSGSGSGTDFTLKISRVEAEDVGVYYCWQGTHFPFTFGPGTKVDIK												3.1e-05 s⁻¹
Humanized IgG4 (from Fab4) (antibody, V domains shown, VH4-hIgG1CH and VL-hIgKCL (human IgG1 / kappa; 'IgG4' is the clone number, not the isotype)) VH: QVQLQESGPGLVKPSETLSLTCTVSGFSISRYSVHWIRQPPGKGLEWIGLIWGGGFTDYNSALKSRVTISKDNSKNQVSLKLSSVTAADTAVYYCAREGVAYWGQGTLVTVSS VL: DVVMTQSPLSLPVTLGQPASISCKSSQSLLNSDGRTYLNWFQQRPGQSPRRLIYLVSKLDSGVPDRFSGSGSGTDFTLKISRVEAEDVGVYYCWQGTHFPFTFGPGTKVDIKR	7.65	15	6.45	37	44.4	46.7	5.45	0.038	0.185	1.3e-05	350000	
